We go through 3 substances from patent publication US20220242935A1.

What all share (experiment): crystal structure of the Fab-NA complex
The target in test [1] is N2 NA ectodomain of A/Japan/305/1957 (H2N2) (influenza A virus A/Japan/305/1957 (H2N2)).
For test [2], the target named is N1 NA ectodomain of A/California/04/2009 (H1N1) (influenza A virus A/California/04/2009 (H1N1)) (UniProt Q6DPI6).
Test [3] has as its target N9 NA ectodomain of A/Hunan/02650/2016 (H7N9) (influenza A virus A/Hunan/02650/2016 (H7N9)).

In test [1], 1E01 Fab had a total buried surface area on the NA of 900 Å2.

In test [2], 1G01 Fab displayed a total buried surface area on the NA of 800 Å2.

In turn, 1G04 Fab showed a total buried surface area on the NA in test [3] of 1030 Å2.
